Assay results: patent US20230357323A1 (University of Washington, published 2023)
Positions count from the first letter of the chain named.

B1: A10 (designed binder)
chain: MEEEKYLREQVKKYYEGKLSVVEAVEEVRKYARKKGLEAWKLIWAFMQLVKRDI
B2: A02 (designed binder)
chain: MEEEKYLRELVKKYYEQKLSHQEAVEIIRKYARKKGLEAWKLVWAFMQLVKRDI
B3: A05 (designed binder)
chain: B2 chain with L7V, L10Q, Q17K, H21Q, Q22P, V43I
B4: A01 (designed binder)
chain: MEPEKYLREKVKKYYEGKLSQPEAVEEIRKYARKKGLEAWKLVWYFMELVKRDI
B5: A07 (designed binder)
chain: B2 chain with Q17K, H21Q, Q22P
B6: A14 (designed binder)
chain: B2 chain with H21Q, Q22P, I28V, V43I, Q48E, D53Y
B7: A09 (designed binder)
chain: MEEEKYLRELVKKYYEQKLSQPEAVEIIRKYARKKGEEAWYLIWMFMELVKRDI
B8: A12 (designed binder)
chain: B2 chain with E3P, L7V, H21Q, K41M
B9: A11 (designed binder)
chain: B2 chain with L7V, Q17G, E26V, I27E, A45M, D53N
B10: A06 (designed binder)
chain: B4 chain with L7V, K10L, G17K, K41M, Y45H, E48Q
B11: A13 (designed binder)
chain: B4 chain with L7V, V43I, Y45H, E48Q
B12: A04 (designed binder)
chain: B2 chain with L7V, Q17G, Q22P, I27E
B13: B04 (designed binder)
chain: NLWQIFYLLNTIIKRTGDPTAKKLKKALREALKKGDEKAVKELAKKAMKYIRS
B14: B05 (designed binder)
chain: B13 chain with Q4M, I13F, R29N, L32M, V40M, M48T
B15: B02 (designed binder)
chain: B13 chain with L8I, L32T, V40M
B16: B12 (designed binder)
chain: B13 chain with L8V, I13Y, K25P, L32M, G35N, V40I
B17: B07 (designed binder)
chain: B13 chain with L8M, I13F, K25L, L32T, V40M, M48T
B18: B01 (designed binder)
chain: B13 chain with Q4M, K25L, R29Q, G35Y, V40I
B19: B09 (designed binder)
chain: B13 chain with L8V, I13Y, K25P, G35N, V40T
B20: B10 (designed binder)
chain: NLWVIFYVLNTIIKRTGDPTAKKLVKALQEAMKKWDEKATKELAKKATKYIRS
B21: B11 (designed binder)
chain: B20 chain with V4I, V8Q, V25I, M32N, T40L
B22: rA11dslf02E (designed binder)
chain: PEPEQFLTELCKKYYEGKLSQPEAVEEIRKYARKWGLEAWKLIWYFMQCVKRDI
B23: rA11dslf02B (designed binder)
chain: MEPEEFLLELCKAYYEGKLSQIEAVEEIRHYARSFGLEAWQLIWYFMQCVKRDI
B24: rA11dslf02A (designed binder)
chain: MEPEKFLKELCKAYYEGKLSQQEAVEEIRSYAMKWGLEAWMLIWYFMQCVKRDI
B25: rA11dslf02C (designed binder)
chain: B23 chain with M1P, E5K, L8S, H30S, F35W, Q41K
B26: rA11dslf02D (designed binder)
chain: B22 chain with Q5K, T8A, K13A, K30S, I43V, Q48L
B27: B0402SB (designed binder)
chain: QLWQIFYLLNTCIKRTGDPTCKKLIKALRECLKKGDAKACDELAKKAVKYIMS
B28: B0402SC (designed binder)
chain: B27 chain with G17C, I25K, K45D
B29: B0402SA (designed binder)
chain: B27 chain with Q1E, A37M
B30: A03 (designed binder)
chain: B1 chain with L7V, Q10L, V21Q, V22P, V28I
B31: A08 (designed binder)
chain: B4 chain with P3E, L7V, K10L, G17K, Y45A, D53N
B32: B03 (designed binder)
chain: B13 chain with L8I, I13H, K25P, L32M, V40M, M48L
B33: B06 (designed binder)
chain: B20 chain with V8L, I13H, V25I, Q29D, W35G, T48L
B34: A03dslf04 (designed binder)
chain: MEEEKCVRELCKKYYEGKLSQPEAVEEIRKCARKKGLEAWKLIWAFMQCVKRDIHHHHHH
notes: E. coli, purified
B35: A05dslf01 (designed binder)
chain: B34 chain with L10Q, G17K, E27I
notes: E. coli, purified
B36: A08dslf03 (designed binder)
chain: B34 chain with C6Y, G17K, C31Y, I43V, Q48E, D53N
notes: E. coli, purified

Target: T1, human IL-23R (hIL-23R), custom construct with C-terminal avi and his tags, biotinylated (human, UniProt Q5VWK5 24-355, limits assumed, enzymatically biotinylated via the avi-tag)
T1 construct: immobilized on streptavidin tips in BLI, labeled target in FACS; also called human IL-23 receptor
T1 sequence (looked up): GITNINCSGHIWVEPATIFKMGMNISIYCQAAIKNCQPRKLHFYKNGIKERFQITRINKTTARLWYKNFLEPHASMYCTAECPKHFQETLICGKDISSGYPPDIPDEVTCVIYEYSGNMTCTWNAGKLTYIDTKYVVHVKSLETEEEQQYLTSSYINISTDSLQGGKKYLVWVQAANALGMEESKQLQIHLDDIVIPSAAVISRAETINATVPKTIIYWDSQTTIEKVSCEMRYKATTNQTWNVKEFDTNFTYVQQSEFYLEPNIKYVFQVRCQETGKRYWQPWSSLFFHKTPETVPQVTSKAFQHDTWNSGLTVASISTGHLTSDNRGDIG
Assay: yeast display FACS, combinatorial library
Experimental: To further enhance affinity, we incorporated mutations previously shown to enhance binding in a combinatorial library that was then sorted for binding hIL-23R to convergence in 6 rounds. The final selection pools were plated on solid media, and individual clones sequenced. 26 unique combinatorial variants appearing in the final selection pool (SEQ ID NOS: 11-24 and 111-122) were selected for expression in E. coli and further biophysical characterization.
(§1) Yeast strain EBY100 was transformed with each library and vector by electroporation and grow in minimal media selective for the yeast strain (-ura) and the transforming plasmid (-trp).²⁷ Expression was induced with 2% galactose. Surface expression was detected with anti-Myc-FITC (Immunology Consultants Laboratory) conjugate, and binding to biotinylated IL-23R was detected with streptavidin-PE (Invitrogen).
Yeast were then washed with PBSF and incubated for 2-5 minutes with stain solution (1:100 each anti-Myc-FITC and streptavidin-PE), washed, and resuspended for analysis and selection by FACS. FACS consecutive gates were set as follows: (1) cell granularity and size, selecting for yeast cells (BSC vs. FSC); (2) cell morphology, selecting singlets (FSC-height vs. FSC-width); (3) expression, selecting expressors by proxy of the Myc-tag (FITC fluorescence histogram); and (4) binding signal, selecting the top 1-5% relative to total population (PE vs. FITC).

Question: Does B1 bind?
Answer: Result: binds

Question: Does B2 bind?
Answer: Result: binds

Question: Does B3 bind?
Answer: Result: binds

Question: Does B4 bind?
Answer: Result: binds

Question: Does B5 bind?
Answer: Result: binds

Question: Does B6 bind?
Answer: Result: binds

Question: Does B7 bind?
Answer: Result: binds

Question: Does B8 bind?
Answer: Result: binds

Question: Does B9 bind?
Answer: Result: binds

Question: Does B10 bind?
Answer: Result: binds

Question: Does B11 bind?
Answer: Result: binds

Question: Does B12 bind?
Answer: Result: binds

Question: Does B13 bind?
Answer: Result: binds

Question: Does B14 bind?
Answer: Result: binds

Question: Does B15 bind?
Answer: Result: binds

Question: Does B16 bind?
Answer: Result: binds

Question: Does B17 bind?
Answer: Result: binds

Question: Does B18 bind?
Answer: Result: binds

Question: Does B19 bind?
Answer: Result: binds

Question: Does B20 bind?
Answer: Result: binds

Question: Does B21 bind?
Answer: Result: binds

Target: T1, human IL-23R (hIL-23R), custom …
Assay: yeast display FACS, SIF incubation then labeled hIL-23R, 5-7 rounds
Experimental: Yeast libraries were first incubated in SIF at 30C, then washed thoroughly and incubated with labeled hIL-23R, and cells retaining the highest binding signal (top 1-5%) were collected by FACS. Two rounds of selection were performed for each library, and the SIF incubation time and/or concentration of proteases were increased from first to second round. […] Indeed in several libraries we saw a large population of Myc-negative, binding-positive cells. In parallel, we performed two rounds of selection for binding to hIL-23R only, without pre-incubation in SIF. […] Best mutations were included in combinatorial libraries, sorted as above for 5-7 rounds after which individual clones were sequenced. Variants present in the final sorts were expressed in E. coli and characterized (SEQ ID NOS: 70-74 and 153-164).
as §1
SIF SSM and combinatorial libraries were prepared as follows: after 16-24 hours induction, yeast were spun down, washed with PBSF, resuspended in SIF (recipe described below) at an OD of 2.0, and incubated at 30° C. shaking for 30-90 minutes as noted. After SIF digest, cells were spun down and washed 4 times with 800 uL PBSF, manually aspirating the supernatant each time to ensure complete washing to remove proteases. SIF-treated cells were then treated with target protein as described above.

Question: Does B22 bind?
Answer: Result: binds

Question: Does B23 bind?
Answer: Result: binds

Question: Does B24 bind?
Answer: Result: binds

Question: Does B25 bind?
Answer: Result: binds

Question: Does B26 bind?
Answer: Result: binds

Question: Does B27 bind?
Answer: Result: binds

Question: Does B28 bind?
Answer: Result: binds

Question: Does B29 bind?
Answer: Result: binds

Target: T1, human IL-23R (hIL-23R), custom …
Assay: biolayer interferometry titration, biotinylated hIL-23R immobilised on streptavidin tips, 1:1 fit
Experimental: Variants were first screened for relative binding to hIL-23R with biolayer interferometry (BLI). hIL-23R was immobilized on the BLI sensor tips and binding to each variant in solution at a constant concentration (50 nM) was measured to qualitatively determine relative performance of the variants. For the best-performing variants, binding constants (KD, including kₒₙ, and koff) were quantitatively determined with BLI titration experiments in triplicate.
Qualitative and quantitative assessment of binding affinity was performed using biolayer interferometry (ForteBio Octet™ […] and associated software for analysis). Enzymatically biotinylated target protein (30 nM) was immobilized on streptavidin-coated sensor tips, then sequentially dipped in wells with: buffer only (baseline), inhibitor in solution (association), and buffer only (dissociation). Kinetic constants were determined from the mathematical fit of a 1:1 binding model.

Question: What does the source list for B30?
Answer: Kd: 250 pM; koff: 0.00024 s⁻¹; kon: 980000 M⁻¹ s⁻¹

Question: What does the source list for B31?
Answer: Kd: 370 pM; koff: 0.00028 s⁻¹; kon: 770000 M⁻¹ s⁻¹

Question: Which results are given for B32?
Answer: Kd: 140 pM; koff: 5.6e-05 s⁻¹; kon: 400000 M⁻¹ s⁻¹

Question: Which Kd does the source give for B33 here?
Answer: Its Kd is 320 pM.

Question: What about the koff of the same binder?
Answer: The koff was 0.00011 s⁻¹.

Question: What about the kon of the same binder?
Answer: The kon was 350000 M⁻¹ s⁻¹.

Question: What does the source list for B34?
Answer: Kd: 130 pM; koff: 0.00034 s⁻¹; kon: 2.6e+06 M⁻¹ s⁻¹

Question: For B35, which Kd is on record?
Answer: Its Kd is 460 pM.

Question: What about the koff of the same binder?
Answer: The koff was 0.00044 s⁻¹.

Question: What about the kon of the same binder?
Answer: Its kon is 960000 M⁻¹ s⁻¹.

Question: With B36 as the binder, how does the Kd read?
Answer: The Kd was 140 pM.

Question: What about the koff of the same binder?
Answer: Its koff is 0.0002 s⁻¹.

Question: And the kon?
Answer: The kon was 1.5e+06 M⁻¹ s⁻¹.
